Changes are numbered by the printed parent chain.

This is an account of results in patent publication US20200157212A1 (Pfizer, published 2020).

To fix the notation:
T1: Rat ROBO2 on cells (rat, UniProt Q7TPD3 22-1469 (mouse entry))
T1 chain: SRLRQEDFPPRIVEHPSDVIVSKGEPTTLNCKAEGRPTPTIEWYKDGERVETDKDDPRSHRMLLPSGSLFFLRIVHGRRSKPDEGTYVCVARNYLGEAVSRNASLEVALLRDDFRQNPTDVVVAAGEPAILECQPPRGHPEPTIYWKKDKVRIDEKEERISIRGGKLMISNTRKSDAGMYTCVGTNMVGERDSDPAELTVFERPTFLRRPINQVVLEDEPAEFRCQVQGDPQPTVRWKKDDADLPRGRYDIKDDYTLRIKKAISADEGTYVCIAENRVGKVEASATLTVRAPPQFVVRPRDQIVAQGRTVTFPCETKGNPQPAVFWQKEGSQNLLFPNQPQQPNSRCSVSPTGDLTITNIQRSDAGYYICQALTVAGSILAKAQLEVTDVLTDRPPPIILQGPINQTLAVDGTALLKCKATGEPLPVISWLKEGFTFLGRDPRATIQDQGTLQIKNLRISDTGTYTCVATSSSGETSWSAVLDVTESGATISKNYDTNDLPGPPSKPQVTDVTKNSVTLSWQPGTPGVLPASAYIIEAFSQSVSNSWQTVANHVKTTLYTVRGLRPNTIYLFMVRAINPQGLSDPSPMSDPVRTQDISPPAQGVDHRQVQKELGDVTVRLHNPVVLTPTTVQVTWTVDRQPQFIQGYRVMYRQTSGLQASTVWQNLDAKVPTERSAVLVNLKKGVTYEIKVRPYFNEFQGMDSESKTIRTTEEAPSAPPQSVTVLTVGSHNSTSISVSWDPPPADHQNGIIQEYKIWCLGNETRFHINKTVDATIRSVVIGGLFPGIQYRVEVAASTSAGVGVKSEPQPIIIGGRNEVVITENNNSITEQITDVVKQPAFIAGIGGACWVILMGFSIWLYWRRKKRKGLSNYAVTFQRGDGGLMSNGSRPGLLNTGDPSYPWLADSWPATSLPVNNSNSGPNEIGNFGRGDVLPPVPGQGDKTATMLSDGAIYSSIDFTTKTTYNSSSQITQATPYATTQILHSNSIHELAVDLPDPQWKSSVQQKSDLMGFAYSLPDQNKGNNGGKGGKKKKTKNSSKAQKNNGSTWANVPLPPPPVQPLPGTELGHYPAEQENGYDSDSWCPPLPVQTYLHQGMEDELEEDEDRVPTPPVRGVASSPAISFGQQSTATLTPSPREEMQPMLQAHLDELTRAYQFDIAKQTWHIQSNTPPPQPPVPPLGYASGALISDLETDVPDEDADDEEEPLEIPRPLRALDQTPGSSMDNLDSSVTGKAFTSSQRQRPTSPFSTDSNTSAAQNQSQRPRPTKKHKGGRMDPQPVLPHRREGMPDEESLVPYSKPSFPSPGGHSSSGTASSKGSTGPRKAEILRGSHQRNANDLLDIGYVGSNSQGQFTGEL

B1: 93H2 (antibody, human IgG1, kappa, V domains shown)
VH: EVQLVQSGAEVKKPGASVKVSCKASGYTFTGYYMHWVRQAPGQGLEWMGWINPNSGATNFPQKFQGRVTMTRDTSITTAYMDLSRLRSDDTAVYYCARESGDDAFDIWGQGTMVTVSS
VL: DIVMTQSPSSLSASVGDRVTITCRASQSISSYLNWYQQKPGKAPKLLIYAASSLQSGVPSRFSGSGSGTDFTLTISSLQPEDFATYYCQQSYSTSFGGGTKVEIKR
notes: also called parental 93H2; 93H2 mAb
B2: CTIR2-16 (antibody, human IgG1, kappa, V domains shown)
VH: B1 VH with T30R, Y33A, N52D, N54R, S55T, A57L, N59K
VL: DIVMTQSPSSLSASVGDRVTITCRASQKISSYLNWYQQKPGKAPKLLIYAASSLQYGVPSRFSGSGSGTDFTLTISSLQPEDFATYYCQQSVGLFFGGGTKVEIKR
notes: CDR-shuffled IgG
B3: CTIR2-14 (antibody, human IgG1, kappa, V domains shown)
VH: B1 VH with T30R, Y33A, N52D, N54R, S55T, A57L, N59K
VL: B2 VL with V92L, G93E, F95G
notes: CDR-shuffled IgG
B4: Abcs55 (antibody, human IgG1, kappa, V domains shown)
VH: B1 VH with N54K, S55D, A57D, N59E
VL: B2 VL with K28S, V92Y, G93S, L94T, F95S
notes: chain-shuffled IgG
B5: Abcs40 (antibody, human IgG1, kappa, V domains shown)
VH: B1 VH with N54K, S55D, A57D, N59E
VL: B2 VL with K28S, Y56S
notes: chain-shuffled IgG
B6: Abcs35 (antibody, human IgG1, kappa)
heavy: EVQLVQSGAEVKKPGASVKVSCKASGYTFTGYYMHWVRQAPGQGLEWMGWINPKNGDTEFPQKFQGRVTMTRDTSITTAYMDLSRLRSDDTAVYYCARESGDDAFDIWGQGTMVTVSSASTKGPSVFPLAPSSKSTSGGTAALGCLVKDYFPEPVTVSWNSGALTSGVHTFPAVLQSSGLYSLSSVVTVPSSSLGTQTYICNVNHKPSNTKVDKKVEPKSCDKTHTCPPCPAPEAAGAPSVFLFPPKPKDTLMISRTPEVTCVVVDVSHEDPEVKFNWYVDGVEVHNAKTKPREEQYNSTYRVVSVLTVLHQDWLNGKEYKCKVSNKALPAPIEKTISKAKGQPREPQVYTLPPSREEMTKNQVSLTCLVKGFYPSDIAVEWESNGQPENNYKTTPPVLDSDGSFFLYSKLTVDKSRWQQGNVFSCSVMHEALHNHYTQKSLSLSPGK
light: DIVMTQSPSSLSASVGDRVTITCRASQSISSYLNWYQQKPGKAPKLLIYAASSLQSGVPSRFSGSGSGTDFTLTISSLQPEDFATYYCQQSVGLFFGGGTKVEIKRTVAAPSVFIFPPSDEQLKSGTASVVCLLNNFYPREAKVQWKVDNALQSGNSQESVTEQDSKDSTYSLSSTLTLSKADYEKHKVYACEVTHQGLSSPVTKSFNRGEC
notes: fully human IgG1; VH of Ab96 with VL of Ab123
B7: Abcs20 (antibody, human IgG1, kappa, V domains shown)
VH: B1 VH with N54K, S55N, A57D, N59E
VL: B2 VL with K28S, Y56S, F95S
notes: chain-shuffled IgG
B8: Abcs25 (antibody, human IgG1, kappa, V domains shown)
VH: B1 VH with N54K, S55D, A57D, N59E
VL: B2 VL with K28S, Y56S, F95S
notes: chain-shuffled IgG
B9: CTIR2-15 (antibody, human IgG1, kappa, V domains shown)
VH: B1 VH with T30R, Y33A, N52D, N54R, S55T, A57L, N59K
VL: B2 VL with F95S
notes: CDR-shuffled IgG

For this test, the target named is T1, Rat ROBO2 on cells. The experiment in a line: cell-based or functional assay.
With B1, the “IC50 (nM), SVZa assay” value stood at 1.69 nM.

B2: the “IC50 (nM), SVZa assay” value turned out to be 0.41 nM.

In the case of B3, the “IC50 (nM), SVZa assay” value stood at 0.11 nM.

Regarding B4, the “IC50 (nM), SVZa assay” value is 0.98 nM.

With B5, the “IC50 (nM), SVZa assay” value stood at 0.11 nM.

With B6, the “IC50 (nM), SVZa assay” value came out at 0.039 nM.

As to B7, the “IC50 (nM), SVZa assay” value turned out to be 0.47 nM.

Turning to B8, the “IC50 (nM), SVZa assay” value is 0.31 nM.

In the case of B9, the “IC50 (nM), SVZa assay” value worked out at 0.02 nM.
